The results in this text go back to patent US6669963B1, “Stable particle in liquid formulations” (Elan Drug Delivery Limited, priority 1997, dated 2003).

Data set [1] can be described thus: Storage stability of EPO preparations, residual EPO by Quantikine IVD EPO-specific immunoassay. The format is physicochemical. The settings on record: within one day. As to the method: Freeze dried EPO was re-hydrated and diluted 100 fold with a buffer of the following composition:
and dried in a spray dryer as above. The powder was weighed into 125 mg aliquots and subjected to secondary drying at a temperature ramping from 40° C. to 80° C. at a rate of 15 degrees per hour under vacuum and then either sealed in a serum vial or re-suspended in 0.5 ml of mineral oil BP and sealed. They were then stored at 37° C. or 55° C. for up to 15 days. At the end of the storage period, residual EPO was extracted into phosphate buffered saline containing 0.01% BSA as above and the amount remaining in the extract was measured using a Quantikine IVD EPO-specific immunoassay (RD Systems Inc).

The subject of another data set is phage lambda DNA. The data set is described as follows: Storage stability of EcoR1 preparations, residual titre by complete cutting of DNA. The format is physicochemical. As to the method: Restriction enzymes are customarily stored in freezers at −20° C. in buffers containing 50% glycerol to prevent ice formation. Even under these conditions some of them have a limited storage life and need to be replaced at intervals. Several enzymes were dried using the technique of the present invention with similar results. The data with one enzyme, EcoR1, is illustrated. The enzyme solution was diluted 100 fold in SC buffer (Colaco C. A. L. S., Sen S., Thangavelu M., Pinder S. and Roser B. “Extraordinary stability of enzymes dried in trehalose: Simplified molecular biology.” Biotechnol. 10 1007-1011 (1992)). The dried enzyme was produced in the spray dryer as above, sealed in vials with or without oil and its stability was compared with fresh liquid enzyme diluted in cutting buffer at three storage temperatures 4° C., 37° C. and 55° C. To determine residual activity after storage, the enzyme was recovered into the acueous phase as described earlier, diluted with SC buffer in a 2-fold dilution series and used to cut 0.5 μg of phage lambda DNA (Life Technologies Inc). The completeness of cutting at various dilutions was assessed by separating the DNA fragments by agarose gel electrophoresis in which the bands were visualised under UV light by ethidium bromide staining.

Bounds are passed on as bounds.

Consider “fresh EPO: Recombinant Human Erythropoietin, not dried in trehalose”, for which the loss of activity in data set [1] (37° C.) is 88%; in data set [1] (55° C.), more than 95%.
Turning to “fresh enzyme: Restriction Endonuclease EcoR1, fresh liquid enzyme diluted in cutting buffer”, the activity on storage result with phage lambda DNA (4° C., over 28 days) is “stable”; in the data set with phage lambda DNA (37° C., by 28 days), “lost essentially all activity”. Besides, the “time to completely inactive” value in the data set on phage lambda DNA (55° C.) is not above 7 days.
